B1: Human adrenomedullin (1-52) (peptide)
peptide: YRQSMNNFQGLRSFGCRFGTCTVQKLAHQIYQFTDKDKDNVAPRSKISPQGY-NH2
modifications: ends and bridges not checked
B2: Human amylin (1-37) (peptide)
peptide: KCNTATCATQRLANFLVHSSNNFGAILSSTNVGSNTY-NH2
modifications: ends and bridges not checked
B3: 19-36 CONH2 (peptide)
peptide: SGGVVKNNFVPTNVGSKA-NH2
notes: also called human α-CGRP 19-36, amidated at the C-terminus
B4: human α-CGRP 1-19-COOH (peptide)
peptide: ACDTATCVTHRLAGLLSRS-OH
modifications: ends and bridges not checked
B5: antibody G1 Fab fragment (Fab, V domains shown)
VH: EVQLVESGGGLVQPGGSLRLSCAASGFTFSNYWISWVRQAPGKGLEWVAEIRSESDASATHYAEAVKGRFTISRDNAKNSLYLQMNSLRAEDTAVYYCLAYFDYGLAIQNYWGQGTLVTVSS
VL: EIVLTQSPATLSLSPGERATLSCKASKRVTTYVSWYQQKPGQAPRLLIYGASNRYLGIPARFSGSGSGTDFTLTISSLEPEDFAVYYCSQSYNYPYTFGQGTKLEIK
B6: human α-CGRP 1-13-COOH (peptide)
peptide: ACDTATCVTHRLA-OH
modifications: ends and bridges not checked
B7: Human calcitonin (1-32) (peptide)
peptide: CGNLSTCMLGTYTQDFNKFHTFPQTAIGVGAP-NH2
modifications: ends and bridges not checked

Experiment [1] has as its target B5. Put plainly: Biacore competition: G1 Fab 50 nM pre-incubated 1 h with 10 uM peptide, then over biotinylated human α-CGRP on SA chip. From the text:
(§1) Y axis represents percentage of binding blocked by the presence of the competing peptide compared with the binding in the absence of the competing peptide.
(§2) All these peptides are amidated at the C-terminus.
Background: Surface plasmon resonance follows binding to a sensor surface in real time, without labels.

The target in experiment [2] is human α-CGRP 19-36-COOH (human, Table 4: free C-terminus (COOH); paragraph 375 calls it amidated at the C-terminus). Put plainly: Biacore peptide competition (FIG. 6).
Description: as §1, §2

The target in experiment [3] is B4. Description: Biacore peptide competition (FIG. 6).
Description: as §1, §2

The target in experiment [4] is B6. Put plainly: Biacore peptide competition (FIG. 6).
Description: as §1, §2

Experiment [5] concerns the target B7. Description: Biacore peptide competition (FIG. 6).
Description: as §1, §2

Experiment [6] deals with B2. Description: Biacore peptide competition (FIG. 6).
Description: as §1, §2

In experiment [7] the target is B1. Description: Biacore peptide competition (FIG. 6).
Description: as §1, §2

The target of experiment [8] is T1, human α-CGRP 26-37 (human).
T1 peptide: NFVPTNVGSKAF-NH2
Put plainly: Biacore: 50 nM G1 Fab with 10 uM competing peptide in solution, over human α-CGRP on chip.
Description: as §1, §2

The target in experiment [9] is T2, rat α-CGRP (1-37) (rat, C-terminal amide; N-terminal biotin when captured on the SA chip).
T2 construct: also called rat α (1-37); α-rat
T2 peptide: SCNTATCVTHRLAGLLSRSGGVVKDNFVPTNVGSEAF
The experiment is described as above.
Description: as §1, §2

The target of experiment [10] is T3, human β-CGRP (1-37) (human, not fully specified; C-terminal amide; N-terminal biotin when captured on the SA chip).
T3 construct: also called human β (1-37)
T3 peptide: T2 peptide with S1A, V22M, D25S, E35K
The experiment is described as above.
Description: as §1, §2

Experiment [11] has as its target T4, rat β-CGRP (1-37) (rat, C-terminal amide; N-terminal biotin when captured on the SA chip).
T4 construct: also called rat β (1-37)
T4 peptide: T2 peptide with E35K
Described as above.
Description: as §1, §2

In experiment [12] the target is T5, human α-CGRP 8-37 (human, C-terminal amide).
T5 peptide: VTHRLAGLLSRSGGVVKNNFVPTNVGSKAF
The experiment is described as above.
Description: as §1, §2

The target of experiment [13] is T6, human α-CGRP P29A (19-37) (human).
T6 peptide: SGGVVKNNFVATNVGSKAF-NH2
The description is as above.
Description: as §1, §2

Experiment [14] addresses T7, human α-CGRP K35A (19-37) (human, not fully specified).
T7 peptide: SGGVVKNNFVPTNVGSAAF-NH2
Described as above.
Description: as §1, §2

Experiment [15] deals with T8, human α-CGRP K35E (19-37) (human, not fully specified).
T8 peptide: SGGVVKNNFVPTNVGSEAF-NH2
The description is as above.
Description: as §1, §2

Experiment [16] has as its target T9, human α-CGRP K35M (19-37) (human, not fully specified).
T9 peptide: SGGVVKNNFVPTNVGSMAF-NH2
The description is as above.
Description: as §1, §2

Experiment [17] has as its target T10, human α-CGRP 1-36-COOH (human, free C-terminus (not amidated)).
T10 construct: also called 1-36 (not amidated at the C-terminus)
T10 peptide: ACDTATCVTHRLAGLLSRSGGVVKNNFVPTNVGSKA
Described as above.

From US20200331991A1 (Teva, published 2020) come the findings set out here.

Positions count from the first letter of the chain named. Where no end group is shown, it is not given here.

Regarding B1, the binding result in experiment [1] is recorded as “no binding (tested: 10 uM)”.
Same read-out and setting: then B2, with “no binding (tested: 10 uM)”.
B3: in [1], the “% Binding blocked” value stood at 0.6% and the binding result is reported as “no binding (tested: 10 uM)”.
In the case of B4, the binding result in [1] was “no binding (tested: 10 uM)”.
Turning to B5, the binding result in experiment [2], in [3], in [4], in [5], in experiment [6] and in [7] was “no binding (tested: 10 uM peptide in 50 nM G1 Fab)” in each case. In addition, the “% of binding blocked by competing peptide” value in experiment [8], in [9], in experiment [10], in experiment [11], in experiment [12] and in experiment [13] was 100% throughout. The “% of binding blocked by competing peptide” value was 100% in experiment [14], 100% in [15], 100% in experiment [16] and approximately 40% in experiment [17].
Consider B6, for which, in experiment [1], the binding result is given as “no binding (tested: 10 uM)”.
Same read-out and setting: then B7, with “no binding (tested: 10 uM)”.
